Paper PMC4638040
Residue numbers refer to the chain shown, from its start. Names may count otherwise.

B1: Hsp70 C-terminal peptide GPTIEEVD (residues 634-641), biotin-SGSG at the N terminus P635A; T636A; I637A (peptide)
chain: SGSGGAAAEEVD
B2: Carboxy-terminus of Hsc70-interacting protein (CHIP), untagged, K30A mutant, Q9UNE7 1-303 (enzyme)
chain: MKGKEEKEGGARLGAGGGSPEKSPSAQELAEQGNRLFVGRKYPEAAACYGRAITRNPLVAVYYTNRALCYLKMQQHEQALADCRRALELDGQSVKAHFFLGQCQLEMESYDEAIANLQRAYSLAKEQRLNFGDDIPSALRIAKKKRWNSIEERRIHQESELHSYLSRLIAAERERELEECQRNHEGDEDDSHVRAQQACIEAKHDKYMADMDELFSQVDEKRKKRDIPDYLCGKISFELMREPCITPSGITYDRKDIEEHLQRVGHFDPVTRSPLTQEQLIPNLAMKEVIDAFISENGWVEDY

Legend:
[1] = target: T1, Carboxy-terminus of Hsc70-interacting protein (CHIP), His-tagged, wild type, Q9UNE7; assay: competition binding assay on microtitre wells (luminometer, anti-CHIP antibody); conditions: chain shown with the change; signal is His-CHIP wt remaining bound to immobilized GST-IRF-1 in the presence of 5 uM peptide (highest dose); lower signal = more competition by the peptide …; parent: est. 0.05; read off a plot
T1 chain: B2 chain with A30K

[2] = target: T2, Carboxy-terminus of Hsc70-interacting protein (CHIP), untagged, K30A mutant (human), Q9UNE7; assay: SEC + other: dynamic light scattering; purified CHIP-K30A; supplemental Fig. S2C, S2D (not shown); conditions: remark: other sources report otherwise
T2 chain: B2 chain

| Binder | response [1] [RLU] | stoichiometry N [2] |
| --- | --- | --- |
| B1 | 1.2 | – |
| B2 | – | 2 |
